Drawing on paper PMC12102759, this text covers screen value for 127 variants.

B1: MBOAT1 peptide 17-32 (Lysophospholipid acyltransferase 1), 16-mer library wild type / NSP3 ADRP (ORF1ab Nsp3b ADRP, residues 1023-1192) (parent)
chain 1: STYLHPLSELLGIPLD
chain 2: not shown
B2: ICA1L peptide 451-466 (Islet cell autoantigen 1-like protein), 16-mer library wild type / NSP16 (ORF1ab Nsp16, residues 6799-7088) (parent)
chain 1: QDMSAWFNLFADLDPL
chain 2: SSQAWQPGVAMPNLYKMQRMLLEKCDLQNYGDSATLPKGIMMNVAKYTQLCQYLNTLTLAVPYNMRVIHFGAGSDKGVAPGTAVLRQWLPTGTLLVDSDLNDFVSDADSTLIGDCATVHTANKWDLIISDMYDPKTKNVTKENDSKEGFFTYICGFIQQKLALGGSVAIKITEHSWNADLYKLMGHFAWWTAFVTNVNASSSEAFLIGCNYLGKPREQIDGYVMHANYIFWRNTNPIQLSSYSLFDMSKFPLKLRGTAVMSLKEGQINDMILSLLSKGRLIIRENNRVVI

In the first experiment the parent is B1. The settings on record: with NSP3 ADRP (ORF1ab Nsp3b ADRP, residues 1023-1192); bait immobilised on MaxiSorp plates (10 µg), library pre-cleared on GST, 2 h binding at 4 °C, five washes; one round per day, days 1-4; value from days 2 and 3; keep out of graded; scale: average fractional NGS count over selection days 2 and 3.
chain 1 L4S: the screen value was found to be 0. Still for that read-out and setting: in the case of chain 1 L4M it was 8.68e-05; in that of chain 1 L4H, 0.000101; in that of chain 1 H5N, 0.0049.

As to chain 1 H5M, the screen value was 0.

On to chain 1 H5S, for which the screen value was determined as 5.25e-05.

As to chain 1 H5Q, the screen value is 0. Same read-out and setting: the same measure for chain 1 H5I: 0; for chain 1 H5L: 0.

As for chain 1 T2Q, the screen value was 4.36e-05. Still for that read-out and setting: in the case of chain 1 T2K it was 0; in that of chain 1 T2V, 0.000388. The same measure, in the same setting: the same measure for chain 1 T2E: 1.15e-05; for chain 1 T2I: 2.27e-05; for chain 1 T2F: 0.00217. Same read-out and setting: the same measure for chain 1 T2R: 0; for chain 1 T2Y: 0.00544.

As to chain 1 T2A, the screen value came out at 0.000138. On the same count and under the same terms, in the case of chain 1 T2H it was 0.000152.

With chain 1 T2L, the screen value came out at 0.000208. Same read-out and setting: in the case of chain 1 T2S it was 5.82e-05. Same read-out and setting: in the case of chain 1 T2W it was 2.61e-05. On the same count and under the same terms, in the case of chain 1 G12Q it was 0.000576; in that of chain 1 G12M, 0.000127; in that of chain 1 G12V, 0. Take chain 1 G12P: the screen value turned out to be 5.99e-05. Consider chain 1 G12I, for which the screen value was 5.57e-05. Still for that read-out and setting: in the case of chain 1 G12D it was 0.

Turning to chain 1 G12S, the screen value stood at 0.000443.

For the variant chain 1 G12N, the screen value was determined as 5.25e-05. On the same count and under the same terms, the same measure for chain 1 G12H: 0.000369; for chain 1 G12W: 3.64e-05. In the case of chain 1 G12A, the screen value is 0.00306.

Take chain 1 L15I: the screen value is 0.000505.

chain 1 L15Y: the screen value came out at 0.000938.

Turning to chain 1 L15T, the screen value was 9.33e-05. Same read-out and setting: the same measure for chain 1 L15M: 0.000121; for chain 1 L15A: 0. The same measure, in the same setting: the same measure for chain 1 L15P: 0; for chain 1 L15E: 0. Still for that read-out and setting: the same measure for chain 1 L15Q: 0; for chain 1 L15W: 8.57e-05; for chain 1 L15V: 0.000529.

For chain 1 S1H, the screen value came to 0.000511. chain 1 S1W: the screen value is 0.000263. Same read-out and setting: the same measure for chain 1 S1D: 0.000236; for chain 1 S1V: 0.000869; for chain 1 S1G: 0.00039.

Turning to chain 1 S1Y, the screen value turned out to be 0.00667. Same read-out and setting: the same measure for chain 1 S1N: 0.000536. On the same count and under the same terms, in the case of chain 1 S1E it was 0.00035; in that of chain 1 S1F, 0.000157.

As to chain 1 S1T, the screen value amounted to 9.2e-05.

Regarding chain 1 S1Q, the screen value turned out to be 0.000187. Still for that read-out and setting: in the case of chain 1 S1L it was 0.000154; in that of chain 1 S1R, 0. With chain 1 S1P, the screen value turned out to be 0.000375.

Consider chain 1 S1M, for which the screen value was found to be 9.76e-05. Still for that read-out and setting: the same measure for chain 1 S1A: 0.000215; for chain 1 S1I: 0.000426. Same read-out and setting: the same measure for chain 1 L10F: 0.00233; for chain 1 L10M: 0.000281.

For the variant chain 1 L10V, the screen value came to 0. On the same count and under the same terms, the same measure for chain 1 L10I: 1.63e-05; for chain 1 L10N: 1.09e-05.

Consider chain 1 L10K, for which the screen value was determined as 0. The same measure, in the same setting: the same measure for chain 1 L10G: 0; for chain 1 L10Y: 0.157; for chain 1 L10Q: 0.

Turning to chain 1 L10R, the screen value was 0. On the same count and under the same terms, in the case of chain 1 L10T it was 0; in that of chain 1 L10H, 3e-05. On the same count and under the same terms, in the case of chain 1 L10S it was 4.6e-05. Same read-out and setting: the same measure for chain 1 S8N: 0; for chain 1 S8G: 0.

In another experiment the parent is B2. The conditions noted are these: with NSP16 (ORF1ab Nsp16, residues 6799-7088); bait immobilised on MaxiSorp plates (10 µg), library pre-cleared on GST, 2 h binding at 4 °C, five washes; one round per day, days 1-4; value from days 2 and 3; keep out of graded; scale: average fractional NGS count over selection days 2 and 3.
Consider chain 1 QEMSAWFNLFADLDPL [chain 1 D2E], for which the screen value is 0.

In the case of chain 1 QDMSAPFNLFADLDPL [chain 1 W6P], the screen value was determined as 0.

Take chain 1 QDMSAVFNLFADLDPL [chain 1 W6V]: the screen value worked out at 0. On the same count and under the same terms, in the case of chain 1 QDMAAWFNLFADLDPL [chain 1 S4A] it was 0; in that of chain 1 QDMMAWFNLFADLDPL [chain 1 S4M], 6.83e-05. Still for that read-out and setting: in the case of chain 1 QDMDAWFNLFADLDPL [chain 1 S4D] it was 6.54e-05; in that of chain 1 QDMVAWFNLFADLDPL [chain 1 S4V], 0; in that of chain 1 QDMSAWFNLFADLDEL [chain 1 P15E], 0. Still for that read-out and setting: in the case of chain 1 QDMSAWFNLFADLDLL [chain 1 P15L] it was 3.43e-05; in that of chain 1 QDMSAWFNLFADLDAL [chain 1 P15A], 1.57e-05. Turning to chain 1 QDMSAWFNLFADLDWL [chain 1 P15W], the screen value worked out at 2.45e-05.

chain 1 QDMSAWFNLFADLDFL [chain 1 P15F]: the screen value came to 0.

As for chain 1 QDMSAWFNLFADLDYL [chain 1 P15Y], the screen value turned out to be 5.19e-05. chain 1 QDMSAWFSLFADLDPL [chain 1 N8S]: the screen value came to 2.43e-05. As to chain 1 QDMSAWFQLFADLDPL [chain 1 N8Q], the screen value is 5.42e-05. On the same count and under the same terms, the same measure for chain 1 QDMSAWFDLFADLDPL [chain 1 N8D]: 6.98e-05.

Regarding chain 1 QDASAWFNLFADLDPL [chain 1 M3A], the screen value worked out at 1.55e-05. Same read-out and setting: in the case of chain 1 QDMSAWFNLFDDLDPL [chain 1 A11D] it was 0; in that of chain 1 QDMSAWFNLFSDLDPL [chain 1 A11S], 2.43e-05; in that of chain 1 QDMSAWFNLFWDLDPL [chain 1 A11W], 0. Same read-out and setting: in the case of chain 1 QDMSAWFNLFFDLDPL [chain 1 A11F] it was 1.35e-05; in that of chain 1 QDMSAWFNLFADLDPS [chain 1 L16S], 5.17e-05. chain 1 QDMSAWFNLFADLDPN [chain 1 L16N]: the screen value worked out at 2.43e-05. The same measure, in the same setting: the same measure for chain 1 QDMSAWFNLFADLDPD [chain 1 L16D]: 3.18e-05. Same read-out and setting: the same measure for chain 1 QDMSAWFNLFADLDPF [chain 1 L16F]: 2.69e-05; for chain 1 QDMSAWFNLFADLDPA [chain 1 L16A]: 6.04e-05.

As for chain 1 QDMSHWFNLFADLDPL [chain 1 A5H], the screen value was determined as 2.76e-05. On the same count and under the same terms, the same measure for chain 1 QDMSLWFNLFADLDPL [chain 1 A5L]: 1.55e-05. On the same count and under the same terms, in the case of chain 1 QDMSSWFNLFADLDPL [chain 1 A5S] it was 3.33e-05. On to chain 1 QDMSGWFNLFADLDPL [chain 1 A5G], for which the screen value was 6.16e-05. Still for that read-out and setting: in the case of chain 1 QDMSAWRNLFADLDPL [chain 1 F7R] it was 0; in that of chain 1 QDMSAWSNLFADLDPL [chain 1 F7S], 3.52e-05.

Turning to chain 1 QDMSAWMNLFADLDPL [chain 1 F7M], the screen value was 7.76e-05. On the same count and under the same terms, in the case of chain 1 QDMSAWVNLFADLDPL [chain 1 F7V] it was 5.76e-05; in that of chain 1 QDMSAWFNLFADLHPL [chain 1 D14H], 0.

Consider chain 1 QDMSAWFNLFADLGPL [chain 1 D14G], for which the screen value is 1.57e-05. Consider chain 1 QDMSAWFNLFADLAPL [chain 1 D14A], for which the screen value came to 3.47e-05. The same measure, in the same setting: the same measure for chain 1 QDMSAWFNLFADLRPL [chain 1 D14R]: 8.06e-05; for chain 1 QDMSAWFNLFADLLPL [chain 1 D14L]: 6.11e-05. Same read-out and setting: the same measure for chain 1 QDMSAWFNLFADLNPL [chain 1 D14N]: 6.07e-05. Turning to chain 1 QDMSAWFNLFADLSPL [chain 1 D14S], the screen value turned out to be 6.51e-05. On the same count and under the same terms, the same measure for chain 1 QDMSAWFNLFADLFPL [chain 1 D14F]: 1.57e-05; for chain 1 QDMSAWFNLFAQLDPL [chain 1 D12Q]: 5.82e-05.

For the variant chain 1 QDMSAWFNLFANLDPL [chain 1 D12N], the screen value is 1.88e-05. chain 1 QDMSAWFNLFAGLDPL [chain 1 D12G]: the screen value came to 3.31e-05. Still for that read-out and setting: the same measure for chain 1 QDMSAWFNLFAPLDPL [chain 1 D12P]: 3.33e-05. On the same count and under the same terms, the same measure for chain 1 QDMSAWFNLRADLDPL [chain 1 F10R]: 0; for chain 1 QDMSAWFNLHADLDPL [chain 1 F10H]: 0.

Regarding chain 1 QDMSAWFNTFADLDPL [chain 1 L9T], the screen value is 3.99e-05. Consider chain 1 QDMSAWFNWFADLDPL [chain 1 L9W], for which the screen value amounted to 7.05e-05. On the same count and under the same terms, in the case of chain 1 QDMSAWFNIFADLDPL [chain 1 L9I] it was 3.31e-05; in that of chain 1 QDMSAWFNAFADLDPL [chain 1 L9A], 0.
